One assay deals with RAB35 mRNA. Nature of the assay: Northwestern blot analysis with DIG-labeled RAB35 mRNA. The settings on record: deletion mutants expressed in A549 cells, compared to full-length KOC1. In kind it is binding. Here is the method: Immunoprecipitated extracts from cells transfected with the KOC1 deletion mutants (μM) were boiled in 2×SDS-sample buffer, electrophoresed through 10-20% gradient polyacrylamide gels (BIO-RAD) and transferred to a polyvinylidene difluoride membrane (Hybond-P). The membrane was then blocked for 1 hour at room temperature in blocking buffer (10 mM Tris-HCl (pH 7.8), 150 mM NaCl, 1 mg/ml yeast tRNA), and washed twice with 50 ml of 10 mM Tris-HCl (pH 7.8) for 5 min and incubated with DIG-labeled RNA probe in 5 ml of NWB buffer (10 mM Tris-HCl (pH 7.8), 1 mM EDTA, 50 mM NaCl, 0.02% Ficoll, 0.02% polyvinyl pyrrolidone, 0.02% BSA) for 2 hours at room temperature. The membrane was washed four times with NWB buffer and the RNA probe bound to the proteins was then detected using DIG nucleic acid detection kit (Roche) according to the supplier's protocol.
To determine the region of KOC1 that is required for binding to KOC1-associated mRNAs, we performed northwestern blot analysis using immunoprecipitated recombinant proteins of KOC1 deletion-mutants expressed in A549 cells (FIG. 4a) and DIG-labeled RAB35 mRNA, which is one of the KOC1 associated mRNAs.

The next assay deals with T1, endogenous KIF11 (Homo sapiens, UniProt P52732).
T1 construct: endogenous in cells
T1 sequence (P52732 1-1056): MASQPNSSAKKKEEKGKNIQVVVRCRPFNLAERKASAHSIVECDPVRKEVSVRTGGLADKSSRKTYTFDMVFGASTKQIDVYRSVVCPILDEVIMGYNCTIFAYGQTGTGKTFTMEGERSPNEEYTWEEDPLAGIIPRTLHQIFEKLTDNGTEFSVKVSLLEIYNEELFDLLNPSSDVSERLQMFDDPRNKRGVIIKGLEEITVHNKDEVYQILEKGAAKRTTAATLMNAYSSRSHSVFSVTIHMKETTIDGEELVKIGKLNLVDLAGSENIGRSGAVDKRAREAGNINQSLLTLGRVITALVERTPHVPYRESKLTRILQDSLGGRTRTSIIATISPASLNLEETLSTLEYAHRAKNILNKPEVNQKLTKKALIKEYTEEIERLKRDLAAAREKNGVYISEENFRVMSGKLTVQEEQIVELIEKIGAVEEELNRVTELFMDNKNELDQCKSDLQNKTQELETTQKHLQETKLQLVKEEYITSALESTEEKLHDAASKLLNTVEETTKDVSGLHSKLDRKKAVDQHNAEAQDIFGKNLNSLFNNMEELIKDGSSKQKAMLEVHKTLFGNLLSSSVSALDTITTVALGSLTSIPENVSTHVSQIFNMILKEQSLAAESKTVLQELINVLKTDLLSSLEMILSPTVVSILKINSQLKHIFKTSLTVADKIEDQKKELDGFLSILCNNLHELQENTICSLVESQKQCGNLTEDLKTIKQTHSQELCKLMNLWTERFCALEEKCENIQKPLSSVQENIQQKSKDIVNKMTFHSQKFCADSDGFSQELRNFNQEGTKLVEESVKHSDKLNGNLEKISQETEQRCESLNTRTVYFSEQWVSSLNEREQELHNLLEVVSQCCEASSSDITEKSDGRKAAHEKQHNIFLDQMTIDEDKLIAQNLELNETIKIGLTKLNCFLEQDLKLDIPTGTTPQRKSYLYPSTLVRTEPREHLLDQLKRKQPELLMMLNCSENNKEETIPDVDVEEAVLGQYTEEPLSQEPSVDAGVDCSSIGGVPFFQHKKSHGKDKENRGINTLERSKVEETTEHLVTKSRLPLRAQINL
Nature of the assay: Immunoprecipitation of KOC1 deletion mutants with endogenous KIF11. In kind it is binding.

A further assay addresses T2, KOC1-KIF11 complex (Homo sapiens, UniProt P52732).
T2 construct: endogenous in cells; host or cells: LC319 (KOC1DEL3) and A549 (KOC1DEL2)
T2 sequence (P52732 1-1056): T1 sequence (P52732 1-1056)
The assay is described as follows: Immunoprecipitation of endogenous KOC1-KIF11 complex after dominant-negative transfection. The assay is classed as cell-based. The protocol: We performed dominant-negative assays using the KOC1 deletion mutants to investigate the functional role of the KOC1-KIF11 complex in growth or survival of lung-cancer cells. The KOC1DEL3 and KOC1DEL2 construct (FIG. 3a; 10 μg), mock plasmid (10 μg), or plasmid mixtures of both constructs in the final dose of 10-μg DNA (KOC1DEL3 or KOC1DEL2 vs mock (μg), 7.5:2.5; 5:5; or 2.5:7.5, individually) were transfected into LC319 cells. The transfected cells were cultured for 7 days in the presence of G418 and their viability was measured by triplicate MTT assays.
To investigate the functional significance of KOC1-KIF11 interaction for growth or survival of lung-cancer cells, a deletion fragment of KOC1 containing the two RRMs, which was able to interact with KIF11 (KOC1DEL3; FIG. 3a, b) was examined for a dominant-negative function of suppressing direct interaction between endogenous KOC1 and KIF11. […] We also confirmed that transfection of construct containing only KH-domains control have no effect on proliferation. […]

For another assay, the system named is A549 cells. The assay is described as follows: Triplicate MTT assay of cell viability, A549. In kind it is cell-based, human. The settings on record: A549, plasmid dose-dependent vs mock; P=0.0006 KOC1DEL2 vs mock. Background: Tetrazolium assays rely on reduction of a dye to a coloured formazan, in cell work by metabolically active cells.
In a further assay the test system is LC319 cells. Nature of the assay: Triplicate MTT assay of cell viability, LC319. The assay is classed as cell-based, human. The settings on record: LC319, plasmid 2.5-10 μg vs mock, 7 days with G418; P<0.001 KOC1DEL3 vs mock. The protocol: Using 30 μl of Lipofectamine 2000 (Invitrogen), 10 μg of siRNA-expression vector were transfected into NSCLC cell lines, A549 and LC319, both endogenously over-expressing KOC1, KIF11, NMU, GHSR1b, NTSR1, RAB35, and FOXM1. […] The transfected cells were cultured for five days in the presence of appropriate concentrations of geneticin (G418), and then, cell numbers and viability were measured by Giemsa staining and triplicate MTT assays. The target sequences of the synthetic oligonucleotides for RNAi were as follows: control 1 (EGFP: enhanced green fluorescent protein (EGFP) gene, a mutant of Aequorea victoria EGFP), 5′-[…]-3′ (SEQ.ID.NO.29); control 2 (Luciferase: Photinus pyralis luciferase gene), 5′-[…]-3′ (SEQ.ID.NO.30); control 3 (Scramble: chloroplast Euglena gracilis gene coding for 5S and 16S rRNAs), 5′-[…]-3′ (SEQ. ID. NO.31);
We performed dominant-negative assays using the KOC1 deletion mutants to investigate the functional role of the KOC1-KIF11 complex in growth or survival of lung-cancer cells. […] The transfected cells were cultured for 7 days in the presence of G418 and their viability was measured by triplicate MTT assays.

B1: KOC1DEL2: KOC1 deletion mutant 2×RRM+2×KH, positions 1 to 406 of SEQ ID NO:105 (protein, listed as Homo sapiens)
chain: MNKLYIGNLSENAAPSDLESIFKDAKIPVSGPFLVKTGYAFVDCPDESWALKAIEALSGKIELHGKPIEVEHSVPKRQRIRKLQIRNIPPHLQWEVLDSLLVQYGVVESCEQVNTDSETAVVNVTYSSKDQARQALDKLNGFQLENFTLKVAYIPDEMAAQQNPLQQPRGRRGLGQRGSSRQGSPGSVSKQKPCDLPLRLLVPTQFVGAIIGKEGATIRNITKQTQSKIDVHRKENAGAAEKSITILSTPEGTSAACKSILEIMHKEAQDIKFTEEIPLKILAHNNFVGRLIGKEGRNLKKIEQDTDTKITISPLQELTLYNPERTITVKGNVETCAKAEEEIMKKIRESYENDIASMNLQAHLIPGLNLNALGLFPPTSGMPPPTSGPPSAMTPPYPQFEQSETE
In the case of B1, the “binding to RAB35 mRNA (northwestern blot)” value in the assay with RAB35 mRNA is “very weak binding affinities”. Also, the “interaction with endogenous KIF11 (immunoprecipitation)” value with endogenous KIF11 (A549 cells) is listed as “detected interaction”. Further, the “complex formation between endogenous KOC1 and KIF11” value in the assay with KOC1-KIF11 complex (A549 cells over-expressing KOC1DEL2) is “reduced complex formation”. The “cell viability (MTT), dominant-negative assay” value in the assay with A549 cells is “significant dose-dependent decreases”.

B2: KOC1DEL3: KOC1 deletion mutant 2×RRM without KH, positions 1-197 of SEQ ID NO:105 (protein, listed as Homo sapiens)
chain: MNKLYIGNLSENAAPSDLESIFKDAKIPVSGPFLVKTGYAFVDCPDESWALKAIEALSGKIELHGKPIEVEHSVPKRQRIRKLQIRNIPPHLQWEVLDSLLVQYGVVESCEQVNTDSETAVVNVTYSSKDQARQALDKLNGFQLENFTLKVAYIPDEMAAQQNPLQQPRGRRGLGQRGSSRQGSPGSVSKQKPCDLP
Take B2: the “cell viability (MTT), dominant-negative assay” value in the assay on LC319 cells was “significant dose-dependent decreases”. Also, in the assay on RAB35 mRNA, the “binding to RAB35 mRNA (northwestern blot)” value was “did not bind”. Moreover, the “interaction with endogenous KIF11 (immunoprecipitation)” value in the assay with endogenous KIF11 (LC319 cells) is “detected interaction”. For the same molecule, the “complex formation between endogenous KOC1 and KIF11” value in the assay with KOC1-KIF11 complex (LC319 cells over-expressing the RRM domains) is on record as “reduce complex formation”.

Values taken from patent publication US7972772B2, “KIF11 and method for diagnosing non-small cell lung cancer” (Oncotherapy Science, Inc., priority 2004, dated 2011).
